Data from PMC9735246 (Cell, 2022).
Values belong to the binder of their own block, whether it stands above or below them.

Experiments:
Human β-tubulin (TBB5) [1] = molecular target: T1, Human β-tubulin (TBB5) (human, UniProt P07437 1-444); experiment: native gel or EMSA
Human α-tubulin (TUBA1B) [2] = molecular target: T2, Human α-tubulin (TUBA1B) (human, UniProt P68363 1-451); experiment: cross-linking
Human β-tubulin (TBB5) [3] = molecular target: T1, Human β-tubulin (TBB5); experiment: cross-linking
Human α-tubulin (TUBA1B) [4] = molecular target: T2, Human α-tubulin (TUBA1B); experiment: native gel or EMSA

T1 sequence (P07437 whole entry): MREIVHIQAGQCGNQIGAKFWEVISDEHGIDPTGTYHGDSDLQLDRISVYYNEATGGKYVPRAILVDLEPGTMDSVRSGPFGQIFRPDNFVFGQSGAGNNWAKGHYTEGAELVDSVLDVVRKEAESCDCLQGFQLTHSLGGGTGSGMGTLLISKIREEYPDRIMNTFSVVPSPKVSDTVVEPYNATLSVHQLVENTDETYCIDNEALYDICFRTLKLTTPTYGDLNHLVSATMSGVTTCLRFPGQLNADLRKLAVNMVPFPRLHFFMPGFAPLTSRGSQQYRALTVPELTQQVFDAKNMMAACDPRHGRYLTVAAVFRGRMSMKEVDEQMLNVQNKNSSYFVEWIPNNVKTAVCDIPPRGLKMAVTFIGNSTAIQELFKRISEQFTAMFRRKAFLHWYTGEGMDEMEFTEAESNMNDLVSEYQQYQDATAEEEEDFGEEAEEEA
T2 sequence (P68363 whole entry): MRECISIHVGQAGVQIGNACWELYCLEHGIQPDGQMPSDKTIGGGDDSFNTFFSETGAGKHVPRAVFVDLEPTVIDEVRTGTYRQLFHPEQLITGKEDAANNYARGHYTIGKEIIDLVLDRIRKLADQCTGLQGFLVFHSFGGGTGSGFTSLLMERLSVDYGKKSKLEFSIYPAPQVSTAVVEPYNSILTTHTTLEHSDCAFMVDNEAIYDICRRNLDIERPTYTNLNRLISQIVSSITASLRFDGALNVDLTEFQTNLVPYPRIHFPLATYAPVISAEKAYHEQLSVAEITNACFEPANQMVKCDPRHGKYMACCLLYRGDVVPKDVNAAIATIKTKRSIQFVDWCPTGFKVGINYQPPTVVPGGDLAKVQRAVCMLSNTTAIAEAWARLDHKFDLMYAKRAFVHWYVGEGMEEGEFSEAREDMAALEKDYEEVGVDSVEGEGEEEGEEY

- binding result (Human β-tubulin (TBB5) [1]): binds
B1: TBCA (natural protein, UniProt O75347 1-108, looked up)
chain: MADPRVRQIKIKTGVVKRLVKEKVMYEKEAKQQEEKIEKMRAEDGENYDIKKQAEILQESRMMIPDCQRRLEAAYLDLQRILENEKDLEEAEEYKEARLVLDSVKLEA

- binding result (Human α-tubulin (TUBA1B) [2]): binds
- binding result (Human β-tubulin (TBB5) [3]): binds
B2: PFD1, subunit of human Prefoldin (natural protein)
chain: MAAPVDLELKKAFTELQAKVIDTQQKVKLADIQIEQLNRTKKHAHLTDTEIMTLVDETNMYEGVGRMFILQSKEAIHSQLLEKQKIAEEKIKELEQKKSYLERSVKEAEDNIREMLMARRAQ

- binding result (Human α-tubulin (TUBA1B) [4]): binds
B3: TBCB (natural protein, UniProt Q99426 1-244, looked up)
chain: MEVTGVSAPTVTVFISSSLNTFRSEKRYSRSLTIAEFKCKLELLVGSPASCMELELYGVDDKFYSKLDQEDALLGSYPVDDGCRIHVIDHSGARLGEYEDVSRVEKYTISQEAYDQRQDTVRSFLKRSKLGRYNEEERAQQEAEAAQRLAEEKAQASSIPVGSRCEVRAAGQSPRRGTVMYVGLTDFKPGYWIGVRYDEPLGKNDGSVNGKRYFECQAKYGAFVKPAVVTVGDFPEEDYGLDEI

- binding result (Human α-tubulin (TUBA1B) [2]): binds
- binding result (Human β-tubulin (TBB5) [3]): binds
B4: PFD3, subunit of human Prefoldin (natural protein)
chain: MAAVKDSCGKGEMATGNGRRLHLGIPEAVFVEDVDSFMKQPGNETADTVLKKLDEQYQKYKFMELNLAQKKRRLKGQIPEIKQTLEILKYMQKKKESTNSMETRFLLADNLYCKASVPPTDKVCLWLGANVMLEYDIDEAQALLEKNLSTATKNLDSLEEDLDFLRDQFTTTEVNMARVYNWDVKRRNKDDSTKNKA
